Data on 6 molecules can be found in paper PMC11248248, “Dual protection by Bcp1 and Rkm1 ensures incorporation of uL14 into pre-60S ribosomal subunits” (The Journal of Cell Biology, 2024).

The labels stand for the following.
B4: Bcp1-His6 (natural protein, S. cerevisiae, UniProt Q06338 1-283, looked up)
chain: MVQAIKLNDLKNRKRKNVEEENGSDESEIDISSTDSENEEEQNGEEEIVNIDFDFFGGNPEVDFHALKNLLRQLFGPQESTRIQLSSLADLILGSPTTTIKTDGKESDPYCFLSFVDFKANHLSDYVKYLQKVDMRLSTFFKTMIDSGNKNCALVLSERLINMPPEVVPPLYKITLEDVATALGDDKHYDFYIIVTRKYEVNFDTDDDTDSGKRNKNKDERSKKRVKADEVDYFHEEDRFFEKYAKIHFESEAKKGVISSYMILDHEGLVKSIDELETEISTW
notes: Bcp1, S. cerevisiae; also called full-length Bcp1; recombinant Bcp1

Conditions in all cases: both partners purified
The target in experiment [1] is T1, GST-Kap121 (S. cerevisiae, UniProt P32337 1-1089).
T1 construct: importin Kap121 (Pse1), S. cerevisiae; also called karyopherin; importin; source: recombinant, purified on glutathione beads; not shown: GST, N-terminal, kept
T1 sequence (looked up): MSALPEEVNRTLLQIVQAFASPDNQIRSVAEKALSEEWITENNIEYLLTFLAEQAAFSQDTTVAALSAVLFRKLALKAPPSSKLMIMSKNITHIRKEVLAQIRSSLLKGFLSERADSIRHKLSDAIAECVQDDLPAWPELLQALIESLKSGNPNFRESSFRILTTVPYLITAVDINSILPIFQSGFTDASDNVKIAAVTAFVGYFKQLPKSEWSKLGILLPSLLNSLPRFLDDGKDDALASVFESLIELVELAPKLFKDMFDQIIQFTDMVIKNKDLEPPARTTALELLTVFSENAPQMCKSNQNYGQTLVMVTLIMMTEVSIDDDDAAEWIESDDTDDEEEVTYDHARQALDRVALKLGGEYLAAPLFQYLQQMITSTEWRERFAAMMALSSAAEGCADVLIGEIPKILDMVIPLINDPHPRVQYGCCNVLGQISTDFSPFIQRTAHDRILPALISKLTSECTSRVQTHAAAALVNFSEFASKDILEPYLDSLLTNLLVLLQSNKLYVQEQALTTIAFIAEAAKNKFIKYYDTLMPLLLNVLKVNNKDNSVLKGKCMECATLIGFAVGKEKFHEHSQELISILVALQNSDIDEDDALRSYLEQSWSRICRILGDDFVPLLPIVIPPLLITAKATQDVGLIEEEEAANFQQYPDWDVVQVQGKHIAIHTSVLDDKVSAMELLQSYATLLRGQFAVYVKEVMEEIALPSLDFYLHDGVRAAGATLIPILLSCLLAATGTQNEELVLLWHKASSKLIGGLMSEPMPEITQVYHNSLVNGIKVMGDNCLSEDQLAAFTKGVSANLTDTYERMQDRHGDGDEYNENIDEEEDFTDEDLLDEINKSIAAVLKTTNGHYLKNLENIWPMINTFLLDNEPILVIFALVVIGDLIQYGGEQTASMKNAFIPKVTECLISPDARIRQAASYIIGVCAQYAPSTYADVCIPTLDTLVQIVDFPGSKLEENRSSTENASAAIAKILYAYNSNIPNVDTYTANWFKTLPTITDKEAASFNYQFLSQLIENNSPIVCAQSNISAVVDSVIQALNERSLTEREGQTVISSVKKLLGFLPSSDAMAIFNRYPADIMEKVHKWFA
Put plainly: pull-down; GST-Kap121 or GST-Kap123 on glutathione beads, incubated with recombinant proteins at 4°C for 1 h, three washes; Coomassie staining and western blotting. In general terms: A western blot detects proteins with antibodies after separation by electrophoresis.

In experiment [2] the target is B4. In words: pull-down; Bcp1-His6 in the supernatants of the methylation reactions (Fig. 6 A, lanes 7 and 8) purified on Ni-NTA beads; bound uL14 and its methylation by western blotting.
Experiment [3] concerns the target T1, GST-Kap121. Put plainly: pull-down; release test: GST-Kap in complex with cargo immobilised on glutathione beads, purified Bcp1 or bcp1ΔN added for another hour at 4°C; what is left on the beads or in the supernatant by western blotting.
Experiment [4] concerns the target T2, Rkm1-His6 (S. cerevisiae, UniProt Q08961 1-583).
T2 construct: Rkm1, ribosomal lysine methyltransferase with SET domain, S. cerevisiae; also called recombinant Rkm1; source: E. coli BL21(DE3), purified (Ni-NTA, Superdex 200)
T2 sequence (looked up): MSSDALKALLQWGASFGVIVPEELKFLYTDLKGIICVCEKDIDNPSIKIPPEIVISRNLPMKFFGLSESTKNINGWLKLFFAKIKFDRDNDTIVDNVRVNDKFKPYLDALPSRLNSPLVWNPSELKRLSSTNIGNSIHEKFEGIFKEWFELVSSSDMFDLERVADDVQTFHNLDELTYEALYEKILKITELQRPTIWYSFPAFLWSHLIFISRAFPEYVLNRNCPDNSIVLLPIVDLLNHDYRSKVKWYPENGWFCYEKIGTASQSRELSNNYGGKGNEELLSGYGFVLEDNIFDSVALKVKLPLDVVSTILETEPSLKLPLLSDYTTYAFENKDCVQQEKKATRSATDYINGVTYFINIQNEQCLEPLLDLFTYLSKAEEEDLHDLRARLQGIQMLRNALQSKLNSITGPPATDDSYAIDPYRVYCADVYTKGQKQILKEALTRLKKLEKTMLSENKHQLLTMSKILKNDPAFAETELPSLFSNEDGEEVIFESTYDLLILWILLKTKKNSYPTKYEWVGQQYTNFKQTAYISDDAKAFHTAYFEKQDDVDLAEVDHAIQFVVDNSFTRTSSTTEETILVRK
Put plainly: SEC; HiLoad 16/600 Superdex 200; Bcp1, uL14 and Rkm1 mixed; ratio from band intensity in SDS-PAGE and molecular weight estimated from SEC.

Experiment [5] deals with B4. Described as above.
Experiment [6] deals with T3, GST-Kap123 (S. cerevisiae, UniProt P40069 1-1113).
T3 construct: importin Kap123, S. cerevisiae; also called karyopherin; importin; source: recombinant, purified on glutathione beads; not shown: GST, N-terminal, kept
T3 sequence (looked up): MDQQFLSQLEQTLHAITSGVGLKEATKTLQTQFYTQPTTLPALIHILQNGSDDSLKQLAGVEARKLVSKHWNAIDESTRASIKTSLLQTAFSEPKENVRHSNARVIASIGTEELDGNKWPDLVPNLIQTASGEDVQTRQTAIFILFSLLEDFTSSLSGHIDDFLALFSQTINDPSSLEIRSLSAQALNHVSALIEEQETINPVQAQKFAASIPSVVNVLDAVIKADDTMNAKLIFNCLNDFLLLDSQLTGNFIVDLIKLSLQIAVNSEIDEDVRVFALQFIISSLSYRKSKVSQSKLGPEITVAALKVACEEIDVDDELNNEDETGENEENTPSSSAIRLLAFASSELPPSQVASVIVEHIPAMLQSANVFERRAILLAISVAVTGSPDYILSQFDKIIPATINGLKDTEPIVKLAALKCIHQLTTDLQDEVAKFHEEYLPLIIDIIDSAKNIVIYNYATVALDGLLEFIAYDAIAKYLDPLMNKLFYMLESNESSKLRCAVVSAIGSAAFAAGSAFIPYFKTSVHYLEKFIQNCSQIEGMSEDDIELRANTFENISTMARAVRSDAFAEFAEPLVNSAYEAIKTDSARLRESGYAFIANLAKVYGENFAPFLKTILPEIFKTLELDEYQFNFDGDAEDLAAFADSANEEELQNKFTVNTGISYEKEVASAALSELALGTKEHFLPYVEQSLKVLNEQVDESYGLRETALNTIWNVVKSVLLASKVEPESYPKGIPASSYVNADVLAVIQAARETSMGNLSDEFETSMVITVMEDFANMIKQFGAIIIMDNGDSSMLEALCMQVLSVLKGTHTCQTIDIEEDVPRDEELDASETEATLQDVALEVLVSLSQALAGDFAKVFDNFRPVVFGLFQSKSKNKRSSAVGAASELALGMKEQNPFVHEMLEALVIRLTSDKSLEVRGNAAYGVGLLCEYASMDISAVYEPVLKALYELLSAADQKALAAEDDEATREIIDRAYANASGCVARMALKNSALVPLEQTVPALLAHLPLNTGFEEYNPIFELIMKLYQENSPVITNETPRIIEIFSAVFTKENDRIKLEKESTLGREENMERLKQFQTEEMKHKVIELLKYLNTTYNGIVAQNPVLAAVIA
Put plainly: pull-down; GST-Kap121 or GST-Kap123 on glutathione beads, incubated with recombinant proteins at 4°C for 1 h, three washes; Coomassie staining and western blotting.

Experiment [7] has as its target T4, GST-Rkm1/uL14 complex (S. cerevisiae, UniProt Q08961 1-583; P0CX41 1-137).
T4 construct: Rkm1, S. cerevisiae; as the chain of m12; uL14 (Rpl23), S. cerevisiae; as the chain of m2; also called Rkm1/uL14 complex on glutathione beads; source: recombinant, purified with glutathione beads
Put plainly: pull-down; purified Bcp1 or bcp1∆N20 added to the GST-Rkm1/uL14 complex immobilised on glutathione beads, with or without 0.5 mM SAM, 30°C, 80 min; beads and supernatants analysed.

T4 sequence (P0CX41 whole entry, one chain of several): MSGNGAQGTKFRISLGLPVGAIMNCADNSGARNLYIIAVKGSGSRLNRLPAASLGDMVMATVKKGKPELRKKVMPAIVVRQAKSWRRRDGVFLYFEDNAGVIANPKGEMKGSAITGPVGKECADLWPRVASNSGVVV

B1: bcp1ΔN10 (domain or fragment, S. cerevisiae, UniProt Q06338 11-283, looked up)
chain: KNRKRKNVEEENGSDESEIDISSTDSENEEEQNGEEEIVNIDFDFFGGNPEVDFHALKNLLRQLFGPQESTRIQLSSLADLILGSPTTTIKTDGKESDPYCFLSFVDFKANHLSDYVKYLQKVDMRLSTFFKTMIDSGNKNCALVLSERLINMPPEVVPPLYKITLEDVATALGDDKHYDFYIIVTRKYEVNFDTDDDTDSGKRNKNKDERSKKRVKADEVDYFHEEDRFFEKYAKIHFESEAKKGVISSYMILDHEGLVKSIDELETEISTW
notes: Bcp1, S. cerevisiae, truncated by 10 amino acids from the N terminus; also called bcp1(∆N10); bcp1∆N10; source: E. coli, purified
For B1, the binding result in experiment [1] is listed as “binds”.

B2: methylated uL14 (natural protein)
chain: not shown
modifications: methylated at K106 and K110
notes: uL14 (Rpl23), S. cerevisiae; Methylation stoichiometry of K106 and K110 ~98.6% by AspN digestion; also called uL14 methylated in vitro by Rkm1 with SAM; source: recombinant uL14 methylated on GST-Rkm1 beads with 0.5 mM SAM, 30°C, 80 min
Consider B2, for which the binding result in experiment [2] is “binds”.

B3: uL14 (recombinant) (natural protein)
chain: not shown
notes: ribosomal protein uL14 (Rpl23), S. cerevisiae, encoded by RPL23A and RPL23B; No tag is named for recombinant uL14; for the Bcp1/uL14 complex its bacterial pellet was lysed together with that of Bcp1-His6; also called Rpl23; source: E. coli BL21(DE3), purified
On to B3, for which the binding result in experiment [3] and in experiment [6] was “binds” throughout. Further, the “stoichiometry N” value in experiment [4] and in experiment [5] was roughly 1 each time. Regarding B4, the binding result in experiment [7] and in experiment [1] was “binds” throughout.

B5: Rkm1/uL14 complex (complex)
chain 1: MSSDALKALLQWGASFGVIVPEELKFLYTDLKGIICVCEKDIDNPSIKIPPEIVISRNLPMKFFGLSESTKNINGWLKLFFAKIKFDRDNDTIVDNVRVNDKFKPYLDALPSRLNSPLVWNPSELKRLSSTNIGNSIHEKFEGIFKEWFELVSSSDMFDLERVADDVQTFHNLDELTYEALYEKILKITELQRPTIWYSFPAFLWSHLIFISRAFPEYVLNRNCPDNSIVLLPIVDLLNHDYRSKVKWYPENGWFCYEKIGTASQSRELSNNYGGKGNEELLSGYGFVLEDNIFDSVALKVKLPLDVVSTILETEPSLKLPLLSDYTTYAFENKDCVQQEKKATRSATDYINGVTYFINIQNEQCLEPLLDLFTYLSKAEEEDLHDLRARLQGIQMLRNALQSKLNSITGPPATDDSYAIDPYRVYCADVYTKGQKQILKEALTRLKKLEKTMLSENKHQLLTMSKILKNDPAFAETELPSLFSNEDGEEVIFESTYDLLILWILLKTKKNSYPTKYEWVGQQYTNFKQTAYISDDAKAFHTAYFEKQDDVDLAEVDHAIQFVVDNSFTRTSSTTEETILVRK
chain 2: not shown
notes: Rkm1, S. cerevisiae; uL14 (Rpl23), S. cerevisiae; as the chain of m2; also called uL14/Rkm1 complex; source: E. coli, recombinant, purified
B5: the binding result in experiment [1] and in experiment [6] was “binds” throughout.

B6: bcp1ΔN20 (domain or fragment, S. cerevisiae, UniProt Q06338 21-283, looked up)
chain: ENGSDESEIDISSTDSENEEEQNGEEEIVNIDFDFFGGNPEVDFHALKNLLRQLFGPQESTRIQLSSLADLILGSPTTTIKTDGKESDPYCFLSFVDFKANHLSDYVKYLQKVDMRLSTFFKTMIDSGNKNCALVLSERLINMPPEVVPPLYKITLEDVATALGDDKHYDFYIIVTRKYEVNFDTDDDTDSGKRNKNKDERSKKRVKADEVDYFHEEDRFFEKYAKIHFESEAKKGVISSYMILDHEGLVKSIDELETEISTW
notes: Bcp1, S. cerevisiae, truncated by 20 amino acids from the N terminus; also called bcp1(∆N20); Bcp1(∆N20); source: E. coli, purified
With B6, the binding result in experiment [7] is given as “binds”.

The stoichiometry N is the number of molecules, sites or subunits per partner or assembly.
